B1: hDAPK2 CD + ARD wild type (pETM14 construct for SEC, SAXS, CaM pull-down and FA) [human] / itself (parent)
chain: NMEPFKQQKVEDFYDIGEELGSGQFAIVKKCREKSTGLEYAAKFIKKRQSRASRRGVSREEIEREVSILRQVLHHNVITLHDVYENRTDVVLILELVSGGELFDFLAQKESLSEEEATSFIKQILDGVNYLHTKKIAHFDLKPENIMLLDKNIPIPHIKLIDFGLAHEIEDGVEFKNIFGTPEFVAPEIVNYEPLGLEADMWSIGVITYILLSGASPFLGDTKQETLANITAVSYDFDEEFFSQTSELAKDFIRKLLVKETRKRLTIQEALRHPWITPVDNQQAMVRRESVVNLENFRKQYVRRRWKLSFSIVSLCNHLTR

Variants of: B1
Assay: analytical size-exclusion chromatography (SEC)
Settings: with itself

screen value [kDa] | Variant
4410 | chain 1 R48E R51E R54E R55E
